Test results taken from article PMC2807033, “Rep Provides a Second Motor at the Replisome to Promote Duplication of Protein-Bound DNA” (Molecular Cell, 2009).
No end group written: not given here. *: point of attachment. Biotin = O=C1N[C@H]2[C@H](CS[C@H]2CCCCC(=O)*)N1

Molecular target: T1, E. coli replicative helicase DnaB, purified (E. coli, UniProt P0ACB0 1-471)
T1 construct: replicative helicase DnaB, E. coli; Construct and purification are in the Supplemental Experimental Procedures; also called E. coli DnaB
Assay: not stated; apparent KD (equilibrium dissociation constant), Figure S5; the method is not told in the text shown (SPR is the only quantitative binding method that the paper names)
Details: both partners purified

T1 sequence (P0ACB0 whole entry): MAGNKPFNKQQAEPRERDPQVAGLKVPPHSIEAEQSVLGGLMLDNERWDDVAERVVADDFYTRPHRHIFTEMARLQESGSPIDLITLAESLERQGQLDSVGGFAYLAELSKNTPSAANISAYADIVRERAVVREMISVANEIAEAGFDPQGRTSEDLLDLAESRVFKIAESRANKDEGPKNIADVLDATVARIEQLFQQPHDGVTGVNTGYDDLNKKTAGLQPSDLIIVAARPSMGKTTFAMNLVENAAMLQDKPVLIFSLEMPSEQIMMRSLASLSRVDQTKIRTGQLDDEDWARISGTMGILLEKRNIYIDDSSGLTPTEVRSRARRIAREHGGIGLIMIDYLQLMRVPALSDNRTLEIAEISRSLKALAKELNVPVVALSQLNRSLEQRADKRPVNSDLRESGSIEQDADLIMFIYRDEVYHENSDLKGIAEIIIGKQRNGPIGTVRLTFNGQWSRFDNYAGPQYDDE

B1: C33^Rep peptide (synthetic peptide corresponding to the C-terminal 33 residues of Rep) (peptide, UniProt P09980 641-673, looked up)
peptide: Biotin-EQERKVVSAEERMQKGQSHLANLKAMMAAKRGK
notes: C-terminal 33 residues of Rep helicase, E. coli; also called the Rep C terminus; source: synthetic peptide; not shown: biotin tag, N-terminal, kept
  Kd: < 100 nM
